B2: GST-Ypt31p (natural protein, yeast (S. cerevisiae), UniProt P38555 1-223, looked up)
chain: MSSEDYGYDYDLLFKIVLIGDSGVGKSNLLSRFTKNEFNMDSKSTIGVEFATRTLEIDGKRIKAQIWDTAGQERYRAITSAYYRGAVGALIVYDISKSSSYENCNHWLSELRENADDNVAVGLIGNKSDLAHLRAVPTEESKTFAQENQLLFTETSALNSENVDKAFEELINTIYQKVSKHQMDLGDSSANGNANGASAPNGPTISLTPTPNENKKANGNNCC

Tests used:
Irc6p = target: T1, Irc6p (Saccharomyces cerevisiae, UniProt P43615); test: limited proteolysis; assay type: binding; conditions: pH 8, 10 mM CaCl2, 24°C; indirect evidence
T1 sequence (P43615 1-237): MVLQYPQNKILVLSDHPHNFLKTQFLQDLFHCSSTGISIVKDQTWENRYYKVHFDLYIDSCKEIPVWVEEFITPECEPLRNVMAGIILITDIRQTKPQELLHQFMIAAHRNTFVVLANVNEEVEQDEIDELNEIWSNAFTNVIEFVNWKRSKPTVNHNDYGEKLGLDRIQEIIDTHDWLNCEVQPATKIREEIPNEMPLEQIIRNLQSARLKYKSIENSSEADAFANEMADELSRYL

GST-Ypt31p = target: B2; test: pull-down
[1] = target: T2, FLAG-tagged Irc6p (recombinant, purified) (yeast (S. cerevisiae), UniProt P43615 1-237); test: pull-down
T2 sequence (looked up): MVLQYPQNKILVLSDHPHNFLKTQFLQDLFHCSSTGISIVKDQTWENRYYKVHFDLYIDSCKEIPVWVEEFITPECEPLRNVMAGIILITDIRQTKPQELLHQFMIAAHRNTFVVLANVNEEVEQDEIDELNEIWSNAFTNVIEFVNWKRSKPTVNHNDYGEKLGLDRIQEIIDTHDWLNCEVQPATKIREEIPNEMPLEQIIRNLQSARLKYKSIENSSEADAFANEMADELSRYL

FLAG-Irc6p-K22A = target: T3, FLAG-Irc6p-K22A (yeast (S. cerevisiae), UniProt P43615 1-237, K22A); test: pull-down
T3 sequence (looked up): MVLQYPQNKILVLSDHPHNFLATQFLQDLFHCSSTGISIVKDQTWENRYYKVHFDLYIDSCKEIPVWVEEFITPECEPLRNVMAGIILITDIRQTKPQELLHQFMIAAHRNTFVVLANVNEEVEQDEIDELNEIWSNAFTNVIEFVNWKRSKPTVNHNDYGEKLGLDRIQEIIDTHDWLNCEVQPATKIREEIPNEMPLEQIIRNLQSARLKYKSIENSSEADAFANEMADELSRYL

Nc1nc2c(ncn2[C@@H]2O[C@H](COP(=O)(O)OP(=O)(O)NP(=O)(O)O)[C@@H](O)[C@H]2O)c(=O)[nH]1 [GMPPNP]
limited proteolysis (chymotrypsin), protection (Irc6p): by limited proteolysis was slowed in the presence of GMPPNP (Figure S2B)

B1: FLAG-Irc6pCT (Irc6p C-terminal region) (domain or fragment, yeast (S. cerevisiae), UniProt P43615 179-237, looked up)
chain: LNCEVQPATKIREEIPNEMPLEQIIRNLQSARLKYKSIENSSEADAFANEMADELSRYL
binding result (GST-Ypt31p): binds

B2
binding result [1]: binds
binding result (FLAG-Irc6p-K22A): binds

B3: FLAG-Irc6pΔC (Irc6p N-terminal region) (domain or fragment, yeast (S. cerevisiae), UniProt P43615 1-179, looked up)
chain: MVLQYPQNKILVLSDHPHNFLKTQFLQDLFHCSSTGISIVKDQTWENRYYKVHFDLYIDSCKEIPVWVEEFITPECEPLRNVMAGIILITDIRQTKPQELLHQFMIAAHRNTFVVLANVNEEVEQDEIDELNEIWSNAFTNVIEFVNWKRSKPTVNHNDYGEKLGLDRIQEIIDTHDWL
binding result (GST-Ypt31p): binds

Reference: publication PMC3496615 (Molecular Biology of the Cell, 2012)
